Results published in PMC8533620, “The Role of the C-Terminal Lysine of S100P in S100P-Induced Cell Migration and Metastasis” (Biomolecules, 2021).
Positions count from the first letter of the chain named. In names and notes the source's numbering stands. Several values for one entry are separate records, joined by “and”; a condition that tells them apart may be missing. Identical values can stand only once.

B1: wild-type recombinant S100P protein (natural protein, human, UniProt P25815 1-95, looked up)
chain: MTELETAMGMIIDVFSRYSGSEGSTQTLTKGELKVLMEKELPGFLQSGKDKDAVDKLLKDLDANGDAQVDFSEFIVFVAAITSACHKYFEKAGLK
notes: S100P, human, 95-amino-acid monomer; cDNA encoding the wild-type protein in pET15b; primers on GenBank NM_005980 run from the ATG (95) to the stop codon (382); also called rS100P; wild-type rS100P; source: recombinant protein from a cDNA in pET15b vector; details in Supplementary Methods S1
B2: K95A mutant recombinant S100P protein (natural protein, human, UniProt P25815 1-95, looked up)
chain: B1 chain with K95A
notes: S100P, human, 95 amino acids, with the C-terminal lysine replaced by alanine; Identity confirmed by mass spectrometry; also called K95A S100P; K95A mutant rS100P; source: recombinant protein from pET15b vector after site-directed mutagenesis; details in Supplementary Methods S1
B3: ΔK95 mutant recombinant S100P protein (natural protein, human, UniProt P25815 1-95, looked up)
chain: MTELETAMGMIIDVFSRYSGSEGSTQTLTKGELKVLMEKELPGFLQSGKDKDAVDKLLKDLDANGDAQVDFSEFIVFVAAITSACHKYFEKAGL
notes: S100P, human, with the C-terminal lysine (K95) deleted, so that the chain ends with leucine 94; Identity confirmed by mass spectrometry; also called ΔK95 S100P; ΔK95 mutant rS100P; source: recombinant protein from pET15b vector after site-directed mutagenesis; details in Supplementary Methods S1

These binders were tested against T1, recombinant protein consisting of the 149 C-terminal amino acids of NMMIIA (UniProt P35579 1812-1960) (assay: resonant mirror biosensor (IAsys); rNMMIIA immobilised, rS100P variants in solution; dual-channel IAsys resonant mirror biosensor; association and dissociation curves fitted a single-site model at least as well as a two-site model; equilibrium and kinetic Kd). Settings: both partners purified.
T1 construct: non-muscle myosin heavy chain isoform IIA (NMMIIA), the 149 C-terminal amino acids; also called rNMMIIA; recombinant C-terminal fragment of non-muscle myosin II heavy chain; source: recombinant
T1 sequence (looked up): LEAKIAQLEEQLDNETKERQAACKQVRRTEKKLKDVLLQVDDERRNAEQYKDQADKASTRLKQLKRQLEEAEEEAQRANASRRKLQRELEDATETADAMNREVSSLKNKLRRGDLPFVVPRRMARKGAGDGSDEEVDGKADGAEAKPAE

Row | Binder | Kd
1 | B1 | 370 to 470 nM
2 | B2 | 2300 nM and 4100 nM
3 | B3 | 2700 nM and 6000 nM
